Measurements as given in publication PMC4104028.

Experiments:
[1] = molecular target: endogenous Atg16L1 (HEK293A) (UniProt Q676U5); assay: GFP-Trap, immunoblot quantification; conditions: parent: est. 0.49; read off a plot
[2] = molecular target: FLAG-Atg16L1 E226R, Q8C0J2-3; assay: GFP-Trap co-immunoprecipitation from mixed lysates, immunoblot quantification; conditions: parent: est. 2.5; read off a plot
[3] = molecular target: FLAG-Atg16L1 E226R E230R (ERER), Q8C0J2-3; assay: as above; conditions: parent: est. 2.5; read off a plot
[4] = molecular target: FLAG-Atg16L1 E230R, Q8C0J2-3; assay: as above; conditions: parent: est. 2.5; read off a plot
FLAG-Atg16L1 E230R, Q8C0J2-3, sequence (Q8C0J2 other isoform, or with tags, fused parts or gaps E230R | E230R): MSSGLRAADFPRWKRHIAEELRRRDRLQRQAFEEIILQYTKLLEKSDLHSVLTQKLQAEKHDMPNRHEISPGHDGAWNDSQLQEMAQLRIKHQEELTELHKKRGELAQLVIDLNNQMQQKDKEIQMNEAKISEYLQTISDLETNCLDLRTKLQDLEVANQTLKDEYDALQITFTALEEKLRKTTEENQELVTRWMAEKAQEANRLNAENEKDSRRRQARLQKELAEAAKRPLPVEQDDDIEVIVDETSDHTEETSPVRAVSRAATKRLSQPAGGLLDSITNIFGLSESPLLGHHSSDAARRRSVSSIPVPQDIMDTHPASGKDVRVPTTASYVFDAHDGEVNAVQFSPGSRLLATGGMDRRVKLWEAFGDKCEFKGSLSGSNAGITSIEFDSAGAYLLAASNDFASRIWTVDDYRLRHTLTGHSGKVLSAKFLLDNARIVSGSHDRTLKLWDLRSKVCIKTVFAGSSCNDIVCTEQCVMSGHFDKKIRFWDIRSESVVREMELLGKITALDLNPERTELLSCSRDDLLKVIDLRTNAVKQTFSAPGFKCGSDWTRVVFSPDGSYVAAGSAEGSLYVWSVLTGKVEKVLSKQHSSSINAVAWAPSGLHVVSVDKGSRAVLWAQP

FLAG-Atg16L1 E226R, Q8C0J2-3, sequence (Q8C0J2 other isoform, or with tags, fused parts or gaps E226R | E226R): as the sequence (Q8C0J2 other isoform, or with tags, fused parts or gaps E230R | E230R) above, with E226R, R230E counted along it
FLAG-Atg16L1 E226R E230R (ERER), Q8C0J2-3, sequence (Q8C0J2 other isoform, or with tags, fused parts or gaps E226R | E230R | E226R E230R): as the sequence (Q8C0J2 other isoform, or with tags, fused parts or gaps E230R | E230R) above, with E226R counted along it
endogenous Atg16L1 (HEK293A), sequence (Q676U5 whole entry): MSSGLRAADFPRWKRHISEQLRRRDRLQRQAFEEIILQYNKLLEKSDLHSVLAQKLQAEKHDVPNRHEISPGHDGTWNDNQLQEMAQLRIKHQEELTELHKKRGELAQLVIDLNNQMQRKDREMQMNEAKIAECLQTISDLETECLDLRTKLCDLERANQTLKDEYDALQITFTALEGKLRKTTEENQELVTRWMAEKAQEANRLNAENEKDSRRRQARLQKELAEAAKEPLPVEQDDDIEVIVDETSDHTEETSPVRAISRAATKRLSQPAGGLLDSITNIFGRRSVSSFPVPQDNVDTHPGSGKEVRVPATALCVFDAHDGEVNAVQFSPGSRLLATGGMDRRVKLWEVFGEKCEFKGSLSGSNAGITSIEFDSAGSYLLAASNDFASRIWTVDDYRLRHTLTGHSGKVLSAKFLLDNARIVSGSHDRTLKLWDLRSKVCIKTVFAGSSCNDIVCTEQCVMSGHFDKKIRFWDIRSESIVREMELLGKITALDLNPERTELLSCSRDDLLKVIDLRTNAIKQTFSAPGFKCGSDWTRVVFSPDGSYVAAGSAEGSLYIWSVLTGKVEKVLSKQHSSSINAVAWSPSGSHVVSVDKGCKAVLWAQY

| response [2] | response [3] | response [4] | Substance | further results |
| --- | --- | --- | --- | --- |
| – | – | – | GFP-WIPI2b FRRG to FTTG | response [1]: 0.79 |
| 0.05 | – | – | m1; m3 WIPI2b:R108E; Atg16L1:E226R | – |
| – | 0.13 | – | m1; m3 WIPI2b:R108E; Atg16L1:E226R; Atg16L1:E230R | – |
| – | – | 0.87 | m1; m3 WIPI2b:R108E; Atg16L1:E230R | – |
| 0.04 | – | – | m1; m3 WIPI2b:R108E; WIPI2b:R125E; Atg16L1:E226R | – |
| – | 0.04 | – | m1; m3 WIPI2b:R108E; WIPI2b:R125E; Atg16L1:E226R; Atg16L1:E230R | – |
| – | – | 0.05 | m1; m3 WIPI2b:R108E; WIPI2b:R125E; Atg16L1:E230R | – |
| 0.05 | – | – | m1; m3 WIPI2b:R125E; Atg16L1:E226R | – |
| – | 0.23 | – | m1; m3 WIPI2b:R125E; Atg16L1:E226R; Atg16L1:E230R | – |
| – | – | 0.04 | m1; m3 WIPI2b:R125E; Atg16L1:E230R | – |
